Data published in patent US20040191910, “Genes encoding plant transcription factors” (International Research Center for Agricultural Sciences, published 2004).

Target: OsDREB2A (Oryza sativa, UniProt A2WL19 SEQ:1-163)
Test: EMSA; room temperature 20 min, 5% PAGE 0.25x TBE
Details: tags: N-terminal GST (pGEX-4T-1), cDNA nt 334-822; label: 32P
Procedure: The E. coli into which the protein had been induced was suspended in 18 ml of buffer (10 mM Tris-HCl, pH 8.0, 0.1 mM EDTA, 5 mM MgCl₂, 400 mM NaCl, 5% glycerol, 0.1 mM phenylmethylsulfonyl fluoride, 0.1 mM dithiothreitol). Then, 1% Triton X-100 and 1 mM EDTA were added thereto. After the cells were disrupted by sonication, the disrupted material was centrifuged at 20,000 g for 1 hour. Then, the protein was purified from the supernatant using glutathione-Sepharose (Pharmacia). The resultant fusion protein was incubated at room temperature for 20 minutes using the DRE sequence-containing 75 bp DNA fragment (SEQ ID NO: 16) labeled with ³²P as a probe. This mixture was electrophoresed using 5% polyacrylamide containing 0.25×Tris-borate-EDTA at 120 V for 90 minutes. As a result of this gel shift assay, those bands which migrated to the back were detected. When the DNA fragment containing the mutated DRE sequence was used as a probe, such bands were not detected. Thus, it became evident that OsDREB1A and OsDREB2A proteins specifically bind to the DRE sequence (FIG. 4).

OsDREB2A, sequence (A2WL19 1-163): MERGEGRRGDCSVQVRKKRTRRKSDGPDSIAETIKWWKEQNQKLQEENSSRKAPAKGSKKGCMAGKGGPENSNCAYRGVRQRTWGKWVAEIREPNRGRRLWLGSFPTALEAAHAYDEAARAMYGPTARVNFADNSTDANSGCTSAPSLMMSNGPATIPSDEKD

B1: DRE 75 bp fragment of rd29A promoter (dsDNA)
DNA 1: ACATCAGTTTGAAAGAAAAGGGAAAAAAAGAAAAAATAAATAAAAGATATACTACCGACATGAGTTCCAAAAAGC
DNA 2: GCTTTTTGGAACTCATGTCGGTAGTATATCTTTTATTTATTTTTTCTTTTTTTCCCTTTTCTTTCAAACTGATGT
- binding result: binds
